B1: SPSB4 (parent)
chain: LDMDEGTLSFIVDGQYLGVAFRGL

Variants of: B1
Experiment: protein stability index of a GFP-peptide fusion (GPS, HEK-293T) (PSI 1-6); higher = more stable
Conditions: c terminus: a fixed tail appended
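Note: lentivirally expressed fusions sorted by FACS into six bins by GFP to DsRed ratio, PSI derived from sequencing read proportions per bin multiplied by bin number.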

Row | Variant | protein stability index
1 | LDMDEGTPSFIVDGQYLGVAFRGL | 1.88
2 | LDMDEGTQSFIVDGQYLGVAFRGL | 2.12
3 | LDMDEGTRSFIVDGQYLGVAFRGL | 2.11
4 | LDMDEGTSSFIVDGQYLGVAFRGL | 1.67
5 | LDMDEGTTSFIVDGQYLGVAFRGL | 1.87
6 | LDMDEGTVSFIVDGQYLGVAFRGL | 4.24
7 | LDMDEGTWSFIVDGQYLGVAFRGL | 3.21
8 | LDMDEGTLAFIVDGQYLGVAFRGL | 3.98
9 | LDMDEGTLCFIVDGQYLGVAFRGL | 2.76
10 | LDMDEGTLDFIVDGQYLGVAFRGL | 1.87
11 | LDMDEGTLEFIVDGQYLGVAFRGL | 2.58
12 | LDMDEGTLGFIVDGQYLGVAFRGL | 2.99
13 | LDMDEGTLHFIVDGQYLGVAFRGL | 2.95
14 | LDMDEGTLKFIVDGQYLGVAFRGL | 1.99
15 | LDMDEGTLLFIVDGQYLGVAFRGL | 1.75
16 | LDMDEGTLNFIVDGQYLGVAFRGL | 2.9
17 | LDMDEGTLPFIVDGQYLGVAFRGL | 1.74
18 | LDMDEGTLQFIVDGQYLGVAFRGL | 2.01
19 | LDMDEGTLTFIVDGQYLGVAFRGL | 2.45
20 | LDMDEGTLVFIVDGQYLGVAFRGL | 1.81
21 | LDMDEGTLYFIVDGQYLGVAFRGL | 2.89
22 | LDMDEGTLSAIVDGQYLGVAFRGL | 1.84
23 | LDMDEGTLSCIVDGQYLGVAFRGL | 2.49
24 | LDMDEGTLSDIVDGQYLGVAFRGL | 2.79

Row | Variant | protein stability index
25 | LDMDEGTLSEIVDGQYLGVAFRGL | 3.13
26 | LDMDEGTLSGIVDGQYLGVAFRGL | 1.5
27 | LDMDEGTLSHIVDGQYLGVAFRGL | 2.14
28 | LDMDEGTLSKIVDGQYLGVAFRGL | 2.37
29 | LDMDEGTLSLIVDGQYLGVAFRGL | 1.76
30 | LDMDEGTLSMIVDGQYLGVAFRGL | 1.73
31 | LDMDEGTLSNIVDGQYLGVAFRGL | 2.27
32 | LDMDEGTLSPIVDGQYLGVAFRGL | 2.3
33 | LDMDEGTLSQIVDGQYLGVAFRGL | 2
34 | LDMDEGTLSRIVDGQYLGVAFRGL | 2.21
35 | LDMDEGTLSSIVDGQYLGVAFRGL | 2.13
36 | LDMDEGTLSTIVDGQYLGVAFRGL | 2.44
37 | LDMDEGTLSVIVDGQYLGVAFRGL | 2.38
38 | LDMDEGTLSWIVDGQYLGVAFRGL | 2.33
39 | LDMDEGTLSYIVDGQYLGVAFRGL | 1.89
40 | LDMDEGTLSFAVDGQYLGVAFRGL | 1.72
41 | LDMDEGTLSFCVDGQYLGVAFRGL | 3.29
42 | LDMDEGTLSFDVDGQYLGVAFRGL | 1.68
43 | LDMDEGTLSFEVDGQYLGVAFRGL | 1.39
44 | LDMDEGTLSFFVDGQYLGVAFRGL | 4.16
45 | LDMDEGTLSFGVDGQYLGVAFRGL | 2.45
46 | LDMDEGTLSFHVDGQYLGVAFRGL | 3.77
47 | LDMDEGTLSFKVDGQYLGVAFRGL | 1.94
48 | LDMDEGTLSFLVDGQYLGVAFRGL | 3.07

Row | Variant | protein stability index
49 | LDMDEGTLSFMVDGQYLGVAFRGL | 2.28
50 | LDMDEGTLSFNVDGQYLGVAFRGL | 2.49
51 | LDMDEGTLSFPVDGQYLGVAFRGL | 2.25
52 | LDMDEGTLSFQVDGQYLGVAFRGL | 2.31
53 | LDMDEGTLSFRVDGQYLGVAFRGL | 2.4
54 | LDMDEGTLSFSVDGQYLGVAFRGL | 2.63
55 | LDMDEGTLSFTVDGQYLGVAFRGL | 2.74
56 | LDMDEGTLSFVVDGQYLGVAFRGL | 1.47
57 | LDMDEGTLSFWVDGQYLGVAFRGL | 1.56
58 | LDMDEGTLSFYVDGQYLGVAFRGL | 2.58
59 | LDMDEGTLSFIADGQYLGVAFRGL | 1.96
60 | LDMDEGTLSFICDGQYLGVAFRGL | 3.24
61 | LDMDEGTLSFIDDGQYLGVAFRGL | 1.99
62 | LDMDEGTLSFIEDGQYLGVAFRGL | 2.01
63 | LDMDEGTLSFIFDGQYLGVAFRGL | 1.92
64 | LDMDEGTLSFIGDGQYLGVAFRGL | 1.94
65 | LDMDEGTLSFIHDGQYLGVAFRGL | 1.62
66 | LDMDEGTLSFIKDGQYLGVAFRGL | 1.79
67 | LDMDEGTLSFILDGQYLGVAFRGL | 1.26
68 | LDMDEGTLSFIMDGQYLGVAFRGL | 2.67
69 | LDMDEGTLSFINDGQYLGVAFRGL | 1.75
70 | LDMDEGTLSFIPDGQYLGVAFRGL | 1.7
71 | LDMDEGTLSFIQDGQYLGVAFRGL | 1.58
72 | LDMDEGTLSFIRDGQYLGVAFRGL | 1.84

Row | Variant | protein stability index
73 | LDMDEGTLSFISDGQYLGVAFRGL | 1.8
74 | LDMDEGTLSFITDGQYLGVAFRGL | 2.35
75 | LDMDEGTLSFIWDGQYLGVAFRGL | 3.35
76 | LDMDEGTLSFIYDGQYLGVAFRGL | 2.36
77 | LDMDEGTLSFIVCGQYLGVAFRGL | 3.49
78 | LDMDEGTLSFIVEGQYLGVAFRGL | 2.83
79 | LDMDEGTLSFIVFGQYLGVAFRGL | 3.41
80 | LDMDEGTLSFIVGGQYLGVAFRGL | 2.8
81 | LDMDEGTLSFIVHGQYLGVAFRGL | 2.94
82 | LDMDEGTLSFIVIGQYLGVAFRGL | 2.6
83 | LDMDEGTLSFIVKGQYLGVAFRGL | 2.61
84 | LDMDEGTLSFIVLGQYLGVAFRGL | 2.94
85 | LDMDEGTLSFIVMGQYLGVAFRGL | 2.37
86 | LDMDEGTLSFIVNGQYLGVAFRGL | 2.39
87 | LDMDEGTLSFIVPGQYLGVAFRGL | 1.82
88 | LDMDEGTLSFIVQGQYLGVAFRGL | 2.77
89 | LDMDEGTLSFIVSGQYLGVAFRGL | 2.61
90 | LDMDEGTLSFIVTGQYLGVAFRGL | 3.32
91 | LDMDEGTLSFIVVGQYLGVAFRGL | 2.9
92 | LDMDEGTLSFIVWGQYLGVAFRGL | 2.55
93 | LDMDEGTLSFIVYGQYLGVAFRGL | 3.11
94 | LDMDEGTLSFIVDAQYLGVAFRGL | 2.58
95 | LDMDEGTLSFIVDDQYLGVAFRGL | 2.32
96 | LDMDEGTLSFIVDEQYLGVAFRGL | 1.91

Row | Variant | protein stability index
97 | LDMDEGTLSFIVDFQYLGVAFRGL | 2.69
98 | LDMDEGTLSFIVDHQYLGVAFRGL | 3.15
99 | LDMDEGTLSFIVDIQYLGVAFRGL | 3.85
100 | LDMDEGTLSFIVDKQYLGVAFRGL | 2.44
101 | LDMDEGTLSFIVDLQYLGVAFRGL | 2.11
102 | LDMDEGTLSFIVDMQYLGVAFRGL | 2.88
103 | LDMDEGTLSFIVDNQYLGVAFRGL | 1.83
104 | LDMDEGTLSFIVDPQYLGVAFRGL | 3.54
105 | LDMDEGTLSFIVDQQYLGVAFRGL | 1.5
106 | LDMDEGTLSFIVDRQYLGVAFRGL | 2.65
107 | LDMDEGTLSFIVDSQYLGVAFRGL | 2.17
108 | LDMDEGTLSFIVDTQYLGVAFRGL | 3.42
109 | LDMDEGTLSFIVDVQYLGVAFRGL | 1.95
110 | LDMDEGTLSFIVDWQYLGVAFRGL | 2.71
111 | LDMDEGTLSFIVDYQYLGVAFRGL | 2.38
112 | LDMDEGTLSFIVDGAYLGVAFRGL | 2.87
113 | LDMDEGTLSFIVDGDYLGVAFRGL | 2.33
114 | LDMDEGTLSFIVDGEYLGVAFRGL | 1.39
115 | LDMDEGTLSFIVDGFYLGVAFRGL | 2.25
116 | LDMDEGTLSFIVDGHYLGVAFRGL | 3.32
117 | LDMDEGTLSFIVDGIYLGVAFRGL | 2.02
118 | LDMDEGTLSFIVDGKYLGVAFRGL | 2.5
119 | LDMDEGTLSFIVDGLYLGVAFRGL | 2.2
120 | LDMDEGTLSFIVDGMYLGVAFRGL | 1.98

Row | Variant | protein stability index
121 | LDMDEGTLSFIVDGNYLGVAFRGL | 3.31
122 | LDMDEGTLSFIVDGSYLGVAFRGL | 2.35
123 | LDMDEGTLSFIVDGTYLGVAFRGL | 3.63
124 | LDMDEGTLSFIVDGVYLGVAFRGL | 2.19
125 | LDMDEGTLSFIVDGYYLGVAFRGL | 2.62
126 | LDMDEGTLSFIVDGQALGVAFRGL | 1.57
127 | LDMDEGTLSFIVDGQCLGVAFRGL | 2.12
128 | LDMDEGTLSFIVDGQDLGVAFRGL | 1.55
129 | LDMDEGTLSFIVDGQELGVAFRGL | 2.56
130 | LDMDEGTLSFIVDGQFLGVAFRGL | 3.17
131 | LDMDEGTLSFIVDGQGLGVAFRGL | 1.78
132 | LDMDEGTLSFIVDGQHLGVAFRGL | 2.37
133 | LDMDEGTLSFIVDGQILGVAFRGL | 3.04
134 | LDMDEGTLSFIVDGQKLGVAFRGL | 1.93
135 | LDMDEGTLSFIVDGQLLGVAFRGL | 2.52
136 | LDMDEGTLSFIVDGQMLGVAFRGL | 2.81
137 | LDMDEGTLSFIVDGQNLGVAFRGL | 1.59
138 | LDMDEGTLSFIVDGQPLGVAFRGL | 2.27
139 | LDMDEGTLSFIVDGQQLGVAFRGL | 1.26
140 | LDMDEGTLSFIVDGQRLGVAFRGL | 1.69
141 | LDMDEGTLSFIVDGQSLGVAFRGL | 1.84
142 | LDMDEGTLSFIVDGQTLGVAFRGL | 2.34
143 | LDMDEGTLSFIVDGQVLGVAFRGL | 3.47
144 | LDMDEGTLSFIVDGQWLGVAFRGL | 1.9

Row | Variant | protein stability index
145 | LDMDEGTLSFIVDGQYAGVAFRGL | 2.15
146 | LDMDEGTLSFIVDGQYDGVAFRGL | 2.29
147 | LDMDEGTLSFIVDGQYEGVAFRGL | 1.79
148 | LDMDEGTLSFIVDGQYFGVAFRGL | 3.76
149 | LDMDEGTLSFIVDGQYGGVAFRGL | 1.47
150 | LDMDEGTLSFIVDGQYHGVAFRGL | 1.86
151 | LDMDEGTLSFIVDGQYIGVAFRGL | 3.23
152 | LDMDEGTLSFIVDGQYKGVAFRGL | 1.87
153 | LDMDEGTLSFIVDGQYMGVAFRGL | 1.67
154 | LDMDEGTLSFIVDGQYNGVAFRGL | 1.51
155 | LDMDEGTLSFIVDGQYPGVAFRGL | 2.51
156 | LDMDEGTLSFIVDGQYQGVAFRGL | 2.09
157 | LDMDEGTLSFIVDGQYRGVAFRGL | 2.03
158 | LDMDEGTLSFIVDGQYSGVAFRGL | 1.86
159 | LDMDEGTLSFIVDGQYTGVAFRGL | 1.69
160 | LDMDEGTLSFIVDGQYVGVAFRGL | 3.15
161 | LDMDEGTLSFIVDGQYWGVAFRGL | 2.72
162 | LDMDEGTLSFIVDGQYYGVAFRGL | 2.55
163 | LDMDEGTLSFIVDGQYLAVAFRGL | 2.82
164 | LDMDEGTLSFIVDGQYLCVAFRGL | 2.03
165 | LDMDEGTLSFIVDGQYLDVAFRGL | 2.55
166 | LDMDEGTLSFIVDGQYLEVAFRGL | 2.06
167 | LDMDEGTLSFIVDGQYLFVAFRGL | 2.44
168 | LDMDEGTLSFIVDGQYLHVAFRGL | 2.93

Row | Variant | protein stability index
169 | LDMDEGTLSFIVDGQYLIVAFRGL | 4.2
170 | LDMDEGTLSFIVDGQYLKVAFRGL | 1.8
171 | LDMDEGTLSFIVDGQYLLVAFRGL | 2.31
172 | LDMDEGTLSFIVDGQYLMVAFRGL | 2.85
173 | LDMDEGTLSFIVDGQYLNVAFRGL | 2.19
174 | LDMDEGTLSFIVDGQYLPVAFRGL | 1.26
175 | LDMDEGTLSFIVDGQYLQVAFRGL | 1.42
176 | LDMDEGTLSFIVDGQYLRVAFRGL | 2.38
177 | LDMDEGTLSFIVDGQYLSVAFRGL | 2.8
178 | LDMDEGTLSFIVDGQYLTVAFRGL | 3.06
179 | LDMDEGTLSFIVDGQYLVVAFRGL | 2.45
180 | LDMDEGTLSFIVDGQYLWVAFRGL | 1.91
181 | LDMDEGTLSFIVDGQYLYVAFRGL | 3.25
182 | LDMDEGTLSFIVDGQYLGAAFRGL | 1.97
183 | LDMDEGTLSFIVDGQYLGCAFRGL | 2.33
184 | LDMDEGTLSFIVDGQYLGDAFRGL | 1.99
185 | LDMDEGTLSFIVDGQYLGEAFRGL | 1.85
186 | LDMDEGTLSFIVDGQYLGFAFRGL | 2.31
187 | LDMDEGTLSFIVDGQYLGGAFRGL | 2.18
188 | LDMDEGTLSFIVDGQYLGHAFRGL | 2.07

— the supplement of paper PMC10567573
